The source of these data is IntAct's records for PubMed 17157788.

To fix the notation:
B1: Protein AATF (Homo sapiens), Q9NY61 (parent)
chain: MAGPQPLALQLEQLLNPRPSEADPEADPEEATAARVIDRFDEGEDGEGDFLVVGSIRKLASASLLDTDKRYCGKTTSRKAWNEDHWEQTLPGSSDEEISDEEGSGDEDSEGLGLEEYDEDDLGAAEEQECGDHRESKKSRSHSAKTPGFSVQSISDFEKFTKGMDDLGSSEEEEDEESGMEEGDDAEDSQGESEEDRAGDRNSEDDGVVMTFSSVKVSEEVEKGRAVKNQIALWDQLLEGRIKLQKALLTTNQLPQPDVFPLFKDKGGPEFSSALKNSHKALKALLRSLVGLQEELLFQYPDTRYLVDGTKPNAGSEEISSEDDELVEEKKQQRRRVPAKRKLEMEDYPSFMAKRFADFTVYRNRTLQKWHDKTKLASGKLGKGFGAFERSILTQIDHILMDKERLLRRTQTKRSVYRVLGKPEPAAQPVPESLPGEPEILPQAPANAHLKDLDEEIFDDDDFYHQLLRELIERKTSSLDPNDQVAMGRQWLAIQKLRSKIHKKVDRKASKGRKLRFHVLSKLLSFMAPIDHTTMNDDARTELYRSLFGQLHPPDEGHGD

Variants of B1 are the subject of the first test. The conditions noted are these: with chk2_human CHEK2, O96017.
Sequence of chk2_human CHEK2, O96017 (O96017 whole entry): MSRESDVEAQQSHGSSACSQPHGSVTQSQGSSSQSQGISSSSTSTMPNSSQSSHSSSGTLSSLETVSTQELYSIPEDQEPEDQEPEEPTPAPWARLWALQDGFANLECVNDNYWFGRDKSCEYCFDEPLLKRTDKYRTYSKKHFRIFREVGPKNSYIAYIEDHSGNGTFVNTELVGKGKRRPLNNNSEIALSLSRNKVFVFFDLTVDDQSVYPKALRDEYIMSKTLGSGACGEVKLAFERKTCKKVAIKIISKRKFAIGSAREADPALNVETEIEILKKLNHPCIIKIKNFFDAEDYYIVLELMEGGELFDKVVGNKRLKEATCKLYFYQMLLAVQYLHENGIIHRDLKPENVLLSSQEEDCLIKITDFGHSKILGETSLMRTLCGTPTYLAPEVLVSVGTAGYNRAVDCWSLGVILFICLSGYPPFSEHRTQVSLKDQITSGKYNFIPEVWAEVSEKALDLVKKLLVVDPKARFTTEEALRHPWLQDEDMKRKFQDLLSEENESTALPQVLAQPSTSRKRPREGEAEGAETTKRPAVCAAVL
For MAGPQPLALQLEQLLNPRPSEADPEADPEEATAARVIDRFDEGEDGEGDFLVVGSIRKLASASLLDTDKRYCGKTTSRKAWNEDHWEQTLPGSSDEEISDEEGSGDEDSEGLGLEEYDEDDLGAAEEQECGDHRESKKSRAHSAKTPGFSVQSISDFEKFTKGMDDLGSSEEEEDEESGMEEGDDAEDSQGESEEDRAGDRNSEDDGVVMTFSSVKVSEEVEKGRAVKNQIALWDQLLEGRIKLQKALLTTNQLPQPDVFPLFKDKGGPEFSSALKNSHKALKALLRSLVGLQEELLFQYPDTRYLVDGTKPNAGSEEISSEDDELVEEKKQQRRRVPAKRKLEMEDYPSFMAKRFADFTVYRNRTLQKWHDKTKLASGKLGKGFGAFERSILTQIDHILMDKERLLRRTQTKRSVYRVLGKPEPAAQPVPESLPGEPEILPQAPANAHLKDLDEEIFDDDDFYHQLLRELIERKTSSLDPNDQVAMGRQWLAIQKLRSKIHKKVDRAASKGRKLRFHVLSKLLSFMAPIDHTTMNDDARTELYRSLFGQLHPPDEGHGD [S141A;K508A], the “effect of a mutation on the interaction” value is “decreasing interaction”.
As for MAGPQPLALQLEQLLNPRPSEADPEADPEEATAARVIDRFDEGEDGEGDFLVVGSIRKLASASLLDTDKRYCGKTTSRKAWNEDHWEQTLPGSSDEEISDEEGSGDEDSEGLGLEEYDEDDLGAAEEQECGDHRESKKSRAHSAKTPGFSVQSISDFEKFTKGMDDLGSSEEEEDEESGMEEGDDAEDSQGESEEDRAGDRNSEDDGVVMTFSSVKVSEEVEKGRAVKNQIALWDQLLEGRIKLQKALLTTNQLPQPDVFPLFKDKGGPEFSSALKNSHKALKALLRSLVGLQEELLFQYPDTRYLVDGTKPNAGSEEISSEDDELVEEKKQQRRRVPAKRKLEMEDYPSFMAKRFADFTVYRNRTLQKWHDKTKLASGKLGKGFGAFERSILTQIDHILMDKERLLRRTQTKRSVYRVLGKPEPAAQPVPESLPGEPEILPQAPANAHLKDLDEEIFDDDDFYHQLLRELIEAKTSSLDPNDQVAMGRQWLAIQKLRSKIHKKVDRKASKGRKLRFHVLSKLLSFMAPIDHTTMNDDARTELYRSLFGQLHPPDEGHGD [S141A;R474A], the “effect of a mutation on the interaction” value is recorded as “decreasing interaction”.
As for MAGPQPLALQLEQLLNPRPSEADPEADPEEATAARVIDRFDEGEDGEGDFLVVGSIRKLASASLLDTDKRYCGKTTSRKAWNEDHWEQTLPGSSDEEISDEEGSGDEDSEGLGLEEYDEDDLGAAEEQECGDHRESKKSRSHAAKTPGFSVQSISDFEKFTKGMDDLGSSEEEEDEESGMEEGDDAEDSQGESEEDRAGDRNSEDDGVVMTFSSVKVSEEVEKGRAVKNQIALWDQLLEGRIKLQKALLTTNQLPQPDVFPLFKDKGGPEFSSALKNSHKALKALLRSLVGLQEELLFQYPDTRYLVDGTKPNAGSEEISSEDDELVEEKKQQRRRVPAKRKLEMEDYPSFMAKRFADFTVYRNRTLQKWHDKTKLASGKLGKGFGAFERSILTQIDHILMDKERLLRRTQTKRSVYRVLGKPEPAAQPVPESLPGEPEILPQAPANAHLKDLDEEIFDDDDFYHQLLRELIERKTASLDPNDQVAMGRQWLAIQKLRSKIHKKVDRKAAKGRKLRFHVLSKLLSFMAPIDHTTMNDDARTELYRSLFGQLHPPDEGHGD [S143A;S477A;S510A], the “effect of a mutation on the interaction” value is on record as “disrupting interaction”.

Variants of B1 are the subject of the next test. The conditions noted are these: with atm_human ATM.
MAGPQPLALQLEQLLNPRPSEADPEADPEEATAARVIDRFDEGEDGEGDFLVVGSIRKLASASLLDTDKRYCGKTTSRKAWNEDHWEQTLPGSSDEEISDEEGSGDEDSEGLGLEEYDEDDLGAAEEQECGDHRESKKSRSHSAKTPGFSVQSISDFEKFTKGMDDLGSSEEEEDEESGMEEGDDAEDAQGESEEDRAGDRNSEDDGVVMTFSSVKVSEEVEKGRAVKNQIALWDQLLEGRIKLQKALLTTNQLPQPDVFPLFKDKGGPEFSSALKNSHKALKALLRSLVGLQEELLFQYPDTRYLVDGTKPNAGSEEISSEDDELVEEKKQQRRRVPAKRKLEMEDYPSFMAKRFADFTVYRNRTLQKWHDKTKLASGKLGKGFGAFERSILTQIDHILMDKERLLRRTQTKRSVYRVLGKPEPAAQPVPESLPGEPEILPQAPANAHLKDLDEEIFDDDDFYHQLLRELIERKTSSLDPNDQVAMGRQWLAIQKLRSKIHKKVDRKASKGRKLRFHVLSKLLSFMAPIDHTTMNDDARTELYRSLFGQLHPPDEGHGD [S189A]: the “effect of a mutation on the interaction” value was “disrupting interaction”.

In a further test the parent is B1. Conditions: with tf65_human RELA.
As to MAGPQPLALQLEQLLNPRPSEADPEADPEEATAARVIDRFDEGEDGEGDFLVVGSIRKLASASLLDTDKRYCGKTTSRKAWNEDHWEQTLPGSSDEEISDEEGSGDEDSEGLGLEEYDEDDLGAAEEQECGDHRESKKSRSHAAKTPGFSVQSISDFEKFTKGMDDLGSSEEEEDEESGMEEGDDAEDAQGESEEDRAGDRNSEDDGVVMTFSSVKVSEEVEKGRAVKNQIALWDQLLEGRIKLQKALLTTNQLPQPDVFPLFKDKGGPEFSSALKNSHKALKALLRSLVGLQEELLFQYPDTRYLVDGTKPNAGSEEISSEDDELVEEKKQQRRRVPAKRKLEMEDYPSFMAKRFADFTVYRNRTLQKWHDKTKLASGKLGKGFGAFERSILTQIDHILMDKERLLRRTQTKRSVYRVLGKPEPAAQPVPESLPGEPEILPQAPANAHLKDLDEEIFDDDDFYHQLLRELIERKTASLDPNDQVAMGRQWLAIQKLRSKIHKKVDRKAAKGRKLRFHVLSKLLSFMAPIDHTTMNDDARTELYRSLFGQLHPPDEGHGD [S143A;S189A;S477A;S510A], the “effect of a mutation on the interaction” value is listed as “disrupting interaction”.
